Publication PMC9482650, “Quantitative fragmentomics allow affinity mapping of interactomes” (Nature Communications, 2022)

T1: APBA2_1, Q99767
T1 sequence (Q99767 563-664, limits assumed, looked up): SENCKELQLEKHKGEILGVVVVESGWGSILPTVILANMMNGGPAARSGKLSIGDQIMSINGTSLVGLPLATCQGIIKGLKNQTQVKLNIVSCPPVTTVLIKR

T2: APBA2_2, Q99767
T2 sequence (Q99767 654-744, limits assumed, looked up): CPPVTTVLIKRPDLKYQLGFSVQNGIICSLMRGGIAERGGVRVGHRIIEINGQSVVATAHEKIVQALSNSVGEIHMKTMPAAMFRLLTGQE

T3: CARD11, Q9BXL7
T3 sequence (Q9BXL7 662-765, limits assumed, looked up): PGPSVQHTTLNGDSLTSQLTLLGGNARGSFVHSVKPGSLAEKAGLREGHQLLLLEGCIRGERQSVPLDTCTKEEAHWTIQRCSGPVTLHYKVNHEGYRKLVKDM

T4: DVL3, Q92997
T4 sequence (Q92997 244-331, limits assumed, looked up): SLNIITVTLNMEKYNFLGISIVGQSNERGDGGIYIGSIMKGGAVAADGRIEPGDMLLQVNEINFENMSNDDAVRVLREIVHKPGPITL

T5: FRMPD1, Q5SYB0
T5 sequence (Q5SYB0 52-145, limits assumed, looked up): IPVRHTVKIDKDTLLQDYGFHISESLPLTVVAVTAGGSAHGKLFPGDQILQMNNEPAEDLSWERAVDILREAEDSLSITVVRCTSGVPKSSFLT

T6: GRIP1_7, Q9Y3R0
T6 sequence (Q9Y3R0 999-1096, limits assumed, looked up): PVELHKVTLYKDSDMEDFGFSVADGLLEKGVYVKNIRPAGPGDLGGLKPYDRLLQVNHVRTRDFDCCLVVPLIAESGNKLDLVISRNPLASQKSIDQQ

T7: HTRA4, P83105
T7 sequence (P83105 378-476, limits assumed, looked up): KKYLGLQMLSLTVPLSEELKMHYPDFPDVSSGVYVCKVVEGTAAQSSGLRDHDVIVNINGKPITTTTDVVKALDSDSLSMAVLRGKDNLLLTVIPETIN

T8: LNX2_2, Q8N448
T8 sequence (Q8N448 334-432, limits assumed, looked up): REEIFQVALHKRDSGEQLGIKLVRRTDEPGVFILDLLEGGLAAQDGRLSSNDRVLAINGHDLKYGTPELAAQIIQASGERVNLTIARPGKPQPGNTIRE

T9: MPDZ_12, O75970
T9 sequence (O75970 1857-1958, limits assumed, looked up): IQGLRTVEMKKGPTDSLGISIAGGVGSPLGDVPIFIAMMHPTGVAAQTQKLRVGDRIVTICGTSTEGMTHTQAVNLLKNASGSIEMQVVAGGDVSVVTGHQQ

T10: MPP2, Q14168
T10 sequence (Q14168 180-250, limits assumed, looked up): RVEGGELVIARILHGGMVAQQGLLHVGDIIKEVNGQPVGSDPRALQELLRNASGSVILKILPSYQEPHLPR

T11: MPP7, Q5T2T1
T11 sequence (Q5T2T1 134-230, limits assumed, looked up): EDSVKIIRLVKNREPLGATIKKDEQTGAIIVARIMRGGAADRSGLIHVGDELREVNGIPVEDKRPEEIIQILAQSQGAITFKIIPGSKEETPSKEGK

T12: NHERF3_3, Q5T2W1
T12 sequence (Q5T2W1 238-333, limits assumed, looked up): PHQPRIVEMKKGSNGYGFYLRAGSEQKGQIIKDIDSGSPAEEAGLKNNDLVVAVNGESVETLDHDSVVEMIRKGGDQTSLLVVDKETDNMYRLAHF

T13: PDZD7_3, Q9H5P4
T13 sequence (Q9H5P4 857-944, limits assumed, looked up): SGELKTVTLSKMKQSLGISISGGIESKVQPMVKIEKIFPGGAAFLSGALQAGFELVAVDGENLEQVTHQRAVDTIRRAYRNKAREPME

T14: SNTG1, Q9NSN8
T14 sequence (Q9NSN8 52-150, limits assumed, looked up): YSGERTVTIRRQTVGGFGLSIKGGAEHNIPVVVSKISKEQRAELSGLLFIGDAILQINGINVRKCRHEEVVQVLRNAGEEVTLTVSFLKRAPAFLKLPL

T15: TIAM2, Q8IVF5
T15 sequence (Q8IVF5 885-986, limits assumed, looked up): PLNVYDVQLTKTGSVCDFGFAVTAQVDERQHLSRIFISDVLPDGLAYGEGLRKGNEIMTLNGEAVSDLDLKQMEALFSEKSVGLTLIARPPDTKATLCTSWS


Molecular target: AHNAK1, Q09666
Assay: holdup assay
Parameters: key: below the threshold = too weak to quantify, mostly under pKd 3.1 to 4
Settings: plain residues with an end cap or a label only (N-terminal biotin on a linker: ado-ado)

Sequence of AHNAK1, Q09666 (Q09666 4-100): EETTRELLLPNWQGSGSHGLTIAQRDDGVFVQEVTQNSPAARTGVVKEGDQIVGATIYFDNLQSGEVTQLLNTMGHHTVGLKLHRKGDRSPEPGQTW

Binder | pKd
WAKEKQHTRL [SLC17A1, Q14916] | below the threshold

Molecular target: T1, APBA2_1, Q99767
Assay: holdup assay
Parameters: key: below the threshold = too weak to quantify, mostly under pKd 3.1 to 4
Settings: plain residues with an end cap or a label only (N-terminal biotin on a linker: ado-ado)

Binder | pKd
WAKEKQHTRL [SLC17A1, Q14916] | below the threshold

Molecular target: T2, APBA2_2, Q99767
Assay: holdup assay
Parameters: key: below the threshold = too weak to quantify, mostly under pKd 3.1 to 4
Settings: plain residues with an end cap or a label only (N-terminal biotin on a linker: ado-ado)

Binder | pKd
WAKEKQHTRL [SLC17A1, Q14916] | below the threshold

Molecular target: ARHGEF12, Q9NZN5-2
Assay: holdup assay
Parameters: key: below the threshold = too weak to quantify, mostly under pKd 3.1 to 4
Settings: plain residues with an end cap or a label only (N-terminal biotin on a linker: ado-ado)

Sequence of ARHGEF12, Q9NZN5-2 (Q9NZN5 other isoform, or with tags, fused parts or gaps): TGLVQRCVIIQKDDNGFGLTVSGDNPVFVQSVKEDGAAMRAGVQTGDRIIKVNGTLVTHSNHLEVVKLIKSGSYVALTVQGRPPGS

Binder | pKd
WAKEKQHTRL [SLC17A1, Q14916] | 4.84

Molecular target: T3, CARD11, Q9BXL7
Assay: holdup assay
Parameters: key: below the threshold = too weak to quantify, mostly under pKd 3.1 to 4
Settings: plain residues with an end cap or a label only (N-terminal biotin on a linker: ado-ado)

Binder | pKd
WAKEKQHTRL [SLC17A1, Q14916] | below the threshold

Molecular target: T4, DVL3, Q92997
Assay: holdup assay
Parameters: key: below the threshold = too weak to quantify, mostly under pKd 3.1 to 4
Settings: plain residues with an end cap or a label only (N-terminal biotin on a linker: ado-ado)

Binder | pKd
WAKEKQHTRL [SLC17A1, Q14916] | below the threshold

Molecular target: T5, FRMPD1, Q5SYB0
Assay: holdup assay
Parameters: key: below the threshold = too weak to quantify, mostly under pKd 3.1 to 4
Settings: plain residues with an end cap or a label only (N-terminal biotin on a linker: ado-ado)

Binder | pKd
WAKEKQHTRL [SLC17A1, Q14916] | below the threshold

Molecular target: T6, GRIP1_7, Q9Y3R0
Assay: holdup assay
Parameters: key: below the threshold = too weak to quantify, mostly under pKd 3.1 to 4
Settings: plain residues with an end cap or a label only (N-terminal biotin on a linker: ado-ado)

Binder | pKd
WAKEKQHTRL [SLC17A1, Q14916] | below the threshold

Molecular target: GRIP2_3, Q9C0E4
Assay: holdup assay
Parameters: key: below the threshold = too weak to quantify, mostly under pKd 3.1 to 4
Settings: plain residues with an end cap or a label only (N-terminal biotin on a linker: ado-ado)

Sequence of GRIP2_3, Q9C0E4 (Q9C0E4 238-339): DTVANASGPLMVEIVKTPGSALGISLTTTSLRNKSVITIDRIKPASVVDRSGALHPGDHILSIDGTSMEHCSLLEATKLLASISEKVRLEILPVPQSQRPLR

Binder | pKd
WAKEKQHTRL [SLC17A1, Q14916] | below the threshold

Molecular target: T7, HTRA4, P83105
Assay: holdup assay
Parameters: key: below the threshold = too weak to quantify, mostly under pKd 3.1 to 4
Settings: plain residues with an end cap or a label only (N-terminal biotin on a linker: ado-ado)

Binder | pKd
WAKEKQHTRL [SLC17A1, Q14916] | below the threshold

Molecular target: Inadl_3, Q8NI35
Assay: holdup assay
Parameters: key: below the threshold = too weak to quantify, mostly under pKd 3.1 to 4
Settings: plain residues with an end cap or a label only (N-terminal biotin on a linker: ado-ado)

Sequence of Inadl_3, Q8NI35 (Q8NI35 359-469): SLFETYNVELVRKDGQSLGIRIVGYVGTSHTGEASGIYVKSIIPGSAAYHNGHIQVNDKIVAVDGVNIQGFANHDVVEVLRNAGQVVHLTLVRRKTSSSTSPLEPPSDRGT

Binder | pKd
WAKEKQHTRL [SLC17A1, Q14916] | below the threshold

Molecular target: LIMK2, P53671
Assay: holdup assay
Parameters: key: below the threshold = too weak to quantify, mostly under pKd 3.1 to 4
Settings: plain residues with an end cap or a label only (N-terminal biotin on a linker: ado-ado)

Sequence of LIMK2, P53671 (P53671 143-248): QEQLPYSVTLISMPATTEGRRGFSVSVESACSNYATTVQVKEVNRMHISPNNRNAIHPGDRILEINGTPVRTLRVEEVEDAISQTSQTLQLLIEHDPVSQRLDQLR

Binder | pKd
WAKEKQHTRL [SLC17A1, Q14916] | below the threshold

Molecular target: T8, LNX2_2, Q8N448
Assay: holdup assay
Parameters: key: below the threshold = too weak to quantify, mostly under pKd 3.1 to 4
Settings: plain residues with an end cap or a label only (N-terminal biotin on a linker: ado-ado)

Binder | pKd
WAKEKQHTRL [SLC17A1, Q14916] | below the threshold

Molecular target: MAST2, Q6P0Q8
Assay: holdup assay
Parameters: key: below the threshold = too weak to quantify, mostly under pKd 3.1 to 4
Settings: plain residues with an end cap or a label only (N-terminal biotin on a linker: ado-ado)

Sequence of MAST2, Q6P0Q8 (Q6P0Q8 1099-1202): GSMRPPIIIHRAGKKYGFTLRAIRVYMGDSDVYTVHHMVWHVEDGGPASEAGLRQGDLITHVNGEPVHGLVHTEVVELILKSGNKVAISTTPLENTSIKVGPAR

Binder | pKd
WAKEKQHTRL [SLC17A1, Q14916] | 5.45

Molecular target: T9, MPDZ_12, O75970
Assay: holdup assay
Parameters: key: below the threshold = too weak to quantify, mostly under pKd 3.1 to 4
Settings: plain residues with an end cap or a label only (N-terminal biotin on a linker: ado-ado)

Binder | pKd
WAKEKQHTRL [SLC17A1, Q14916] | below the threshold

Molecular target: T10, MPP2, Q14168
Assay: holdup assay
Parameters: key: below the threshold = too weak to quantify, mostly under pKd 3.1 to 4
Settings: plain residues with an end cap or a label only (N-terminal biotin on a linker: ado-ado)

Binder | pKd
WAKEKQHTRL [SLC17A1, Q14916] | below the threshold

Molecular target: T11, MPP7, Q5T2T1
Assay: holdup assay
Parameters: key: below the threshold = too weak to quantify, mostly under pKd 3.1 to 4
Settings: plain residues with an end cap or a label only (N-terminal biotin on a linker: ado-ado)

Binder | pKd
WAKEKQHTRL [SLC17A1, Q14916] | below the threshold

Molecular target: T12, NHERF3_3, Q5T2W1
Assay: holdup assay
Parameters: key: below the threshold = too weak to quantify, mostly under pKd 3.1 to 4
Settings: plain residues with an end cap or a label only (N-terminal biotin on a linker: ado-ado)

Binder | pKd
WAKEKQHTRL [SLC17A1, Q14916] | 4.28

Molecular target: T13, PDZD7_3, Q9H5P4
Assay: holdup assay
Parameters: key: below the threshold = too weak to quantify, mostly under pKd 3.1 to 4
Settings: plain residues with an end cap or a label only (N-terminal biotin on a linker: ado-ado)

Binder | pKd
WAKEKQHTRL [SLC17A1, Q14916] | 4.87

Molecular target: SCRIB_1, Q14160
Assay: holdup assay
Parameters: key: below the threshold = too weak to quantify, mostly under pKd 3.1 to 4
Settings: plain residues with an end cap or a label only (N-terminal biotin on a linker: ado-ado)

Sequence of SCRIB_1, Q14160 (Q14160 718-814): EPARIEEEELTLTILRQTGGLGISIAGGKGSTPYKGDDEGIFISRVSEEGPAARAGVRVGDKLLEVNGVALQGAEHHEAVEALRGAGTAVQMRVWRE

Binder | pKd
WAKEKQHTRL [SLC17A1, Q14916] | 4.21

Molecular target: T14, SNTG1, Q9NSN8
Assay: holdup assay
Parameters: key: below the threshold = too weak to quantify, mostly under pKd 3.1 to 4
Settings: plain residues with an end cap or a label only (N-terminal biotin on a linker: ado-ado)

Binder | pKd
WAKEKQHTRL [SLC17A1, Q14916] | below the threshold

Molecular target: T15, TIAM2, Q8IVF5
Assay: holdup assay
Parameters: key: below the threshold = too weak to quantify, mostly under pKd 3.1 to 4
Settings: plain residues with an end cap or a label only (N-terminal biotin on a linker: ado-ado)

Binder | pKd
WAKEKQHTRL [SLC17A1, Q14916] | below the threshold

Molecular target: TJP1_2, Q07157
Assay: holdup assay
Parameters: key: below the threshold = too weak to quantify, mostly under pKd 3.1 to 4
Settings: plain residues with an end cap or a label only (N-terminal biotin on a linker: ado-ado)

Sequence of TJP1_2, Q07157 (Q07157 181-274): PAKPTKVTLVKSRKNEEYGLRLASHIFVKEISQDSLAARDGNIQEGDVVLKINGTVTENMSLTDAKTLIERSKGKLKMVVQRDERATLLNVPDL

Binder | pKd
WAKEKQHTRL [SLC17A1, Q14916] | below the threshold
